Experimental data reported in PMC9638930, “Structural basis of flagellar motility regulation by the MogR repressor and the GmaR antirepressor in Listeria monocytogenes” (Nucleic Acids Research, 2022).

Tests used:
[1] = biological target: MogRD with individual mutation of the N154, I155 and F156 residues to alanine; assay: ELISA; wells coated with MogR protein (20 nM); three-fold serially diluted His6-tagged GmaRFL, 2 h at 18°C; detected with anti-His6 antibody
[2] = biological target: MogRD^S114A/Q117A/N118A/K122A (Listeria monocytogenes) (UniProt P0DJO8); assay: as above
[3] = biological target: His6-tagged GmaRFL protein; assay: ELISA
[4] = biological target: full-length GmaR (GmaRFL; residues 1–637) (Listeria monocytogenes); assay: SEC; Superdex 200 10/300 at room temperature, 20 mM Hepes pH 7.4, 150 mM NaCl, 5 mM βME; GmaRFL, MogRD and their 1:1 molar mixture
[5] = biological target: full-length GmaR (GmaRFL; residues 1–637) (Listeria monocytogenes); assay: ITC; MicroCal iTC200, 18°C; 250 μM MogRD injected into 25 μM GmaRFL or GmaR_(141-637); 20 mM Hepes pH 7.4, 150 mM NaCl, 5 mM βME; one-site binding model
[6] = biological target: full-length GmaR (GmaRFL; residues 1–637) (Listeria monocytogenes); assay: native gel or EMSA; native PAGE (6% gel, pH 8.8, Coomassie); GmaR incubated with MogR at a defined molar ratio at 18°C for 30 min in 20 mM Hepes pH 7.4, 150 mM NaCl, 5 mM βME
[7] = biological target: T1, MogR DBD protein (MogRD; residues 1–162) (Listeria monocytogenes, UniProt P0DJO8 1-162); assay: ITC; MicroCal iTC200, 18°C; 250 μM MogRD injected into 25 μM GmaRFL or GmaR_(141-637); 20 mM Hepes pH 7.4, 150 mM NaCl, 5 mM βME; one-site binding model; conditions: both partners purified
T1 construct: Monomer by gel filtration; also called MogR^GmaR; source: E. coli BL21 (DE3), purified (Ni-NTA, Mono S or Mono Q ion exchange); for the crystal co-purified with GmaR_(231-637)
T1 sequence: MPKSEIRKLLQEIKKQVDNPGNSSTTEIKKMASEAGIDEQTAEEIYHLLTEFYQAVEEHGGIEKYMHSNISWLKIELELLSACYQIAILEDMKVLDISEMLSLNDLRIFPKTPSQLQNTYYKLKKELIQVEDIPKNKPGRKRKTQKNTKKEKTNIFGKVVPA

[8] = biological target: T2, MogRD (MogR DNA-binding domain) (Listeria monocytogenes, UniProt P0DJO8 1-162); assay: FP; 20 mM Hepes pH 7.4, 150 mM NaCl, 5 mM bME; FP room temperature with 1 nM dsDNA; EMSA 18 C 30 min (GmaR inhibition assays at room temperature, 10 min, 2:1 MogR:dsDNA); conditions: protein: recombinant; tags: N-terminal His6, thrombin site; blunt
T2 sequence: T1 sequence

MogR1-151 [9] = biological target: T3, MogR1-151 (Listeria monocytogenes, UniProt P0DJO8 1-151); assay: as above; conditions: protein: recombinant; tags: N-terminal His6, thrombin site; blunt
T3 sequence: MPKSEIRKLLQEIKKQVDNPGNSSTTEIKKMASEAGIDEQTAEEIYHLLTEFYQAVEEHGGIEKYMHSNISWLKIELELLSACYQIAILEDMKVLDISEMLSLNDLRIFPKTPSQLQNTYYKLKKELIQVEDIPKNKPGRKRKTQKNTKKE

MogRD Site1-Ala [10] = biological target: T4, MogRD Site1-Ala (Listeria monocytogenes, UniProt P0DJO8 1-162, K152A;T153A;N154A;I155A;F156A); assay: FP; 100 nM MogR with GmaRFL; no inhibition; 20 mM Hepes pH 7.4, 150 mM NaCl, 5 mM bME; FP room temperature with 1 nM dsDNA; EMSA 18 C 30 min (GmaR inhibition assays at room temperature, 10 min, 2:1 MogR:dsDNA); conditions: protein: recombinant; tags: N-terminal His6, thrombin site; chain copies: 2; blunt
MogR1-151 [11] = biological target: T3, MogR1-151; assay: EMSA; 20 mM Hepes pH 7.4, 150 mM NaCl, 5 mM bME; FP room temperature with 1 nM dsDNA; EMSA 18 C 30 min (GmaR inhibition assays at room temperature, 10 min, 2:1 MogR:dsDNA); conditions: protein: recombinant; tags: N-terminal His6, thrombin site; label: none (ethidium bromide stain); blunt
MogRD Site1-Ala [12] = biological target: T4, MogRD Site1-Ala; assay: as above; conditions: protein: recombinant; tags: N-terminal His6, thrombin site; chain copies: 2; label: none (ethidium bromide stain); blunt
[13] = biological target: T2, MogRD (MogR DNA-binding domain); assay: EMSA; with GmaRFL pretreated at 37 C 15 min; inhibition lost; 20 mM Hepes pH 7.4, 150 mM NaCl, 5 mM bME; FP room temperature with 1 nM dsDNA; EMSA 18 C 30 min (GmaR inhibition assays at room temperature, 10 min, 2:1 MogR:dsDNA); conditions: protein: recombinant; tags: N-terminal His6, thrombin site; label: none (ethidium bromide stain); blunt
MogRD SiteMIG-Ala = MogRD SiteMIG-Ala (Listeria monocytogenes, UniProt P0DJO8 1-162, R140A;K141A;R142A;K143A;T144A); assay: EMSA or FP (Supplementary Fig S9; method and label not given in material); 20 mM Hepes pH 7.4, 150 mM NaCl, 5 mM bME; FP room temperature with 1 nM dsDNA; EMSA 18 C 30 min (GmaR inhibition assays at room temperature, 10 min, 2:1 MogR:dsDNA); conditions: protein: recombinant; tags: N-terminal His6, thrombin site; chain copies: 2; label: none (ethidium bromide stain); blunt

His6-tagged GmaRFL protein (natural protein)
fold reduction of GmaRFL-binding activity against MogRD [1]: 5 to 6 fold | fold lower GmaRFL-binding activity than MogRD [2]: 2 fold

MogR DBD protein (MogRD; residues 1–162) (from UniProt P0DJO8) F156A
EC50 ([3]; parent: 220 ± 81): 1420 nM

MogR DBD protein (MogRD; residues 1–162) (from UniProt P0DJO8) I155A
EC50 ([3]; parent: 220 ± 81): 1170 nM

MogR DBD protein (MogRD; residues 1–162) (from UniProt P0DJO8) K122A
EC50 ([3]; parent: 167 ± 18): 160 nM

MogR DBD protein (MogRD; residues 1–162) (from UniProt P0DJO8) K152A
EC50 ([3]; parent: 220 ± 81): 346 nM

MogR DBD protein (MogRD; residues 1–162) (from UniProt P0DJO8) N118A
EC50 ([3]; parent: 167 ± 18): 185 nM

MogR DBD protein (MogRD; residues 1–162) (from UniProt P0DJO8) N154A
EC50 ([3]; parent: 220 ± 81): 1230 nM

MogR DBD protein (MogRD; residues 1–162) (from UniProt P0DJO8) Q117A
EC50 ([3]; parent: 167 ± 18): 182 nM

MogR DBD protein (MogRD; residues 1–162) (from UniProt P0DJO8) S114A
EC50 ([3]; parent: 167 ± 18): 139 nM

MogR DBD protein (MogRD; residues 1–162) (from UniProt P0DJO8) S114A; Q117A; N118A; K122A
EC50 ([3]; parent: 167 ± 18): 342 nM

MogR DBD protein (MogRD; residues 1–162) (from UniProt P0DJO8) T112A
EC50 ([3]; parent: 167 ± 18): 165 nM

MogR DBD protein (MogRD; residues 1–162) (from UniProt P0DJO8) T153A
EC50 ([3]; parent: 220 ± 81): 518 nM

B1: MogR DBD protein (MogRD; residues 1–162) (domain or fragment)
chain: T1 sequence
stoichiometry N [4]: 1 | Kd [5]: 13 nM | stoichiometry N [6]: 1

B2: N-terminally truncated GmaR protein (GmaR_(141-637); residues 141–637) (domain or fragment)
chain: RGVIHEQLEAIDKRPIAAGVAEVKIYHYGYMSEIVEKQDKSDRNLRLLEKEVKNNKNSGFVHFNIGQEMNRLGNKKEALKEFSEAFRLRDHNHYIWAKLSAYHIAELLEQEKRYDESLAIIEEARVIWPNVPEFPLKKANILYVNHQLEDAKEIYQSLLENAAIDYQPIVLYEATNFMPHKMLGTIYLEEKDYTRAMTHFSKAYAENSSDYGVMFQMIMLLSKFHQPKEIFAFMERHHFISSTETGLRLLSMTTQQGYAELSELIVQSLTDVYPPVAEATEVKIATIRNVFPVISESAILFGIKEELIDAADLCLWHYENPQLPIENVMKNSDVGDIYDFIFENGPRISKKRYLFVLERAIALGKGEFADYLLALRNVYHDSINSHIADLFFQYDFADIALDFYNIVDADEVTKQGYINLINYLVDADVLDEALAIAERGIDNFSTDFRFYLWAIKIDTENRANRISEAMDEFPNNRYLAKLLDEVTMLQDTVTNNR
Kd [7]: ~22 nM

B3: operator dsDNA, fluorescein-labeled (dsDNA)
DNA 1: ATTTGATTTTTTAAAAAAATGAAGA
DNA 2: TCTTCATTTTTTTAAAAAATCAAAT
binding result [8]: binds | binding result (MogR1-151 [9]): binds | binding result (MogRD Site1-Ala [10]): binds

B4: operator dsDNA, unlabeled (dsDNA)
DNA 1: ATTTGATTTTTTAAAAAAATGAAGA
DNA 2: TCTTCATTTTTTTAAAAAATCAAAT
binding result (MogR1-151 [11]): binds | binding result (MogRD Site1-Ala [12]): binds | binding result [13]: binds | binding result (MogRD SiteMIG-Ala): no binding
